The values below come from publication PMC4773095.

This experiment deals with NsrR, response regulator from Streptococcus agalactiae COH1 (full length) (Streptococcus agalactiae COH1). Briefly: SEC; Superdex 200 GL 10/300, buffer C (25 mM Tris pH 9.0, 50 mM NaCl, 2 mM PMSF); column calibrated with proteins of known molecular weight. (Size exclusion chromatography separates by hydrodynamic size, large species first.)

As a reminder, the stoichiometry N is a count of units in the complex or per binding partner. In turn, “NsrR, response regulator from Streptococcus agalactiae COH1 (full length) (natural protein)” showed a stoichiometry N of 2.
